Source: patent US20220387578A1 (VANDERBILT UNIVERSITY, published 2022)
Like-named read-outs stand apart in the source and are kept apart here.

T1: eHead_H1Solomon (wild-type H1 head domain monomer) (influenza A virus, UniProt B4URD6 65-276)
T1 chain: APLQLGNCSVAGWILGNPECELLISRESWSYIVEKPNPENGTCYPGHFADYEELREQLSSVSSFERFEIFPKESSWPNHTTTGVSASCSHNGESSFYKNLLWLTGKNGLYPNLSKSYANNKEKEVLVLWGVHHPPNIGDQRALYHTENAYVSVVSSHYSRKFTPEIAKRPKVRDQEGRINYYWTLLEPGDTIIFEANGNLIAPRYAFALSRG


Experiments:
[1] = target: A/Duck/Czechoslovakia/1956 (Influenza A virus); assay: ELISA on coated recombinant HA
A/Puerto Rico/8/1934 = A/Puerto Rico/8/1934 (Influenza A virus); assay: ELISA on coated recombinant HA
[2] = target: A/Turkey/Ontario/6118/1967 (Influenza A virus); assay: ELISA on coated recombinant HA
[3] = target: H5 HA A/Vietnam/1203/2004 (H5N1), recombinant (influenza A virus); assay: ELISA on coated recombinant HA
[4] = target: H5 HA A/Indonesia/05/2005 (H5N1), recombinant (influenza A virus); assay: ELISA on coated recombinant HA
[5] = target: H7 HA A/New York/107/2003, recombinant (influenza A virus); assay: ELISA on coated recombinant HA
[6] = target: T2, H1 HA A/Texas/36/1991 (H1N1), recombinant soluble trimer (influenza A virus); assay: ELISA on coated recombinant HA
T2 construct: extracellular domain

[7] = target: H2 HA A/Singapore/1/1957, recombinant soluble trimer (influenza A virus); assay: ELISA on coated recombinant HA
[8] = target: T3, H3 HA A/Hong Kong/1/1968 (H3N2), recombinant soluble trimer (influenza A virus, UniProt Q91MA7 17-530); assay: ELISA on coated recombinant HA
[9] = target: T4, H3 HA A/Texas/50/2012, recombinant soluble trimer (influenza A virus); assay: ELISA on coated recombinant HA
T4 construct: extracellular domain

[10] = target: H12 HA A/duck/Alberta/60/1976, recombinant (influenza A virus); assay: ELISA on coated recombinant HA
[11] = target: T3, H3 HA A/Hong Kong/1/1968 (H3N2), …; assay: ELISA on coated recombinant HA; remark: listed apart in the source
[12] = target: T1, eHead_H1Solomon (wild-type H1 head …); assay: SPR
[13] = target: T5, eHead-H3HK68_v1 (wild-type H3 head domain monomer) (influenza A virus, UniProt Q91MA7 53-335); assay: SPR
[14] = target: T1, eHead_H1Solomon (wild-type H1 head …); assay: SPR (Example 4, Table E)
[15] = target: T5, eHead-H3HK68_v1 (wild-type H3 head …); assay: SPR (Example 4, Table E)
[16] = target: H1 HA A/South Carolina/1/1918 (H1N1) (influenza A virus, UniProt Q9WFX3 18-529); assay: BLI, biotinylated HA on streptavidin sensor
[17] = target: T3, H3 HA A/Hong Kong/1/1968 (H3N2), …; assay: BLI, biotinylated HA on streptavidin sensor

Binder | EC50 [1] | EC50 (A/Puerto Rico/8/1934) | EC50 [2] | EC50 [3] | EC50 [4] | EC50 [5] | EC50 [6] | EC50 [7] | EC50 [8] | EC50 [9] | EC50 [10] | Kd [16] | other results
mAb H5.31 (hybridoma IgG) (antibody, V domains shown) VH: EVQLVQSGGGLVQPGGSLRLSCEASRFTSSSYWITWVRQAPGKGLEWVANIKQDGSEKYFVDSVKGRFTISRDNASNSLYLQMSSLRAEDTAVYYCARGFLERLLLGRQGAYYYGMDVWGQGTTVTVSS VL: DIQMTQSPSSLSASVGDRVTMTCRASQSISSSLNWYQQKPGKAPKLLIYAASNLQSGVPSRFSGSGSGTDFTLTISSLQPEDFATYYCQQSYTMPPELTFGGGTKVQIK | 0.006 µg/mL | 0.004 µg/mL | 0.004 µg/mL | 0.006 µg/mL | > 2.5 µg/mL | > 2.5 µg/mL | 0.006 µg/mL | 0.004 µg/mL | 0.009 µg/mL | 0.936 µg/mL | 0.002 µg/mL |  | 
mAb H5.28 (hybridoma IgG) (antibody, V domains shown) VH: EVQLVESGGGLVQPGGSLRLSCAASGFTFSTYWMTWVRQAPGKGLEWVANINQDGGEKYFVDSVKGRFTISRDNAKNSLFLQMNTLRAEDTAVYYCARGFLERLLLGRQGAYYYGMDVWGQGTTVTVSS VL: DIQMTQSPSSLSASVGDRVSMTCRASQIISSSLNWYQQKPGKAPKLLIYAASNLQSGVPSRFSGSGSGTDFTLTISSLQPEDFATYYCQQSYSTPPELTFGGGTKVEIK | 0.021 µg/mL | 0.01 µg/mL | > 2.5 µg/mL | 0.182 µg/mL | > 2.5 µg/mL | > 2.5 µg/mL | 0.022 µg/mL | 0.014 µg/mL | > 2.5 µg/mL | > 2.5 µg/mL | 0.269 µg/mL |  | 
FluA-20-UCA IgG (unmutated common ancestor of FluA-20) (antibody, V domains shown) VH: QVQLQESGPGLVKPSETLSLTCTVSGGSVSSGSYYWSWIRQPPGKGLEWIGYIYYSGSTNYNPSLKSRVTISVDTSKNQFSLKLSSVTAADTAVYYCARGTEDLGYCSGGSCPNHWGQGTLVTVSS VL: not shown |  |  |  |  |  |  |  |  |  |  |  |  | EC50 [11]: 0.021 µg/mL
FluA20_UCA (as used in the SPR experiments of Example 4) (antibody, V domains shown) VH: QVQLQESGPGLVKPSETLSLTCTVSGGSVSSGSYYWSWIRQPPGKGLEWIGYIYYSGSTNYNPSLKSRVTISVDTSKNQFSLKLSSVTAADTAVYYCARGTEDLGYCSGGSCPNHWGQGTLVTVSS VL: not shown |  |  |  |  |  |  |  |  |  |  |  |  | Kd [12]: 500 nM; Kd [13]: 530 nM; Kd [14]: ~500 nM; Kd [15]: ~500 nM
FluA-20 UCA Fab (Fab, V domains shown) VH: QVQLQESGPGLVKPSETLSLTCTVSGGSVSSGSYYWSWIRQPPGKGLEWIGYIYYSGSTNYNPSLKSRVTISVDTSKNQFSLKLSSVTAADTAVYYCARGTEDLGYCSGGSCPNHWGQGTLVTVSS VL: not shown |  |  |  |  |  |  |  |  |  |  |  | 937 nM | Kd [17]: 486 nM
rFluA-20 Fab (Fab, V domains shown) VH: QVQLQESGPGLVKPSETLSLTCSVSGVSVTSDIYYWTWIRQPPGKGLEWIGYIFYNGDTNYNPSLKSRVTMSIDTSKNEFSLRLTSVTAADTAVYFCARGTEDLGYCSSGSCPNHWGQGTLVTVSS VL: DIQMTQSPSSLSASIGDRVTITCRPSQNIRSFLNWFQHKPGKAPKLLIYAASNLQSGVPSRFSGSGSGTEFTLTIRSLQPEDFATYYCQQSYNTPPTFGQGTKVEIK |  |  |  |  |  |  |  |  |  |  |  | 46 nM | 
